Reference: article PMC6428923

Molecular target: GDP-bound KRAS4b-farnesyl (farnesylated, not carboxy-methylated) (UniProt P01116)
Test: ITC

calmodulin (CaM), full-length, amino acids 2-148 (from UniProt P0DP23 2-148) (natural protein)
Kd: 1500 nM
